Data taken from US20090163698A1, “Method for Preparing Antibody Conjugates” (priority 2007, published 2009).

Target: human αVβ3/5 integrin (human) (UniProt P06756)
Test: cell-based or functional assay
Set-up: IC50 of doxorubicin, cell viability, colon cancer HT29 cells, targeted liposomes 40:1 / IC50 of doxorubicin, cell viability, colon cancer HT29 cells, targeted liposomes 90:1 / IC50 of doxorubicin, cell viability, melanoma A375.S2 cells, targeted liposomes 40:1 / IC50 of doxorubicin, cell viability, melanoma A375.S2 cells, targeted liposomes 90:1 / IC50 of doxorubicin, cell viability, ovarian cancer A2780 cells, targeted liposomes 40:1 / IC50 of doxorubicin, cell viability, ovarian cancer A2780 cells, targeted liposomes 90:1: unit not given beside the values

human αVβ3/5 integrin (human), sequence (P06756 31-1048): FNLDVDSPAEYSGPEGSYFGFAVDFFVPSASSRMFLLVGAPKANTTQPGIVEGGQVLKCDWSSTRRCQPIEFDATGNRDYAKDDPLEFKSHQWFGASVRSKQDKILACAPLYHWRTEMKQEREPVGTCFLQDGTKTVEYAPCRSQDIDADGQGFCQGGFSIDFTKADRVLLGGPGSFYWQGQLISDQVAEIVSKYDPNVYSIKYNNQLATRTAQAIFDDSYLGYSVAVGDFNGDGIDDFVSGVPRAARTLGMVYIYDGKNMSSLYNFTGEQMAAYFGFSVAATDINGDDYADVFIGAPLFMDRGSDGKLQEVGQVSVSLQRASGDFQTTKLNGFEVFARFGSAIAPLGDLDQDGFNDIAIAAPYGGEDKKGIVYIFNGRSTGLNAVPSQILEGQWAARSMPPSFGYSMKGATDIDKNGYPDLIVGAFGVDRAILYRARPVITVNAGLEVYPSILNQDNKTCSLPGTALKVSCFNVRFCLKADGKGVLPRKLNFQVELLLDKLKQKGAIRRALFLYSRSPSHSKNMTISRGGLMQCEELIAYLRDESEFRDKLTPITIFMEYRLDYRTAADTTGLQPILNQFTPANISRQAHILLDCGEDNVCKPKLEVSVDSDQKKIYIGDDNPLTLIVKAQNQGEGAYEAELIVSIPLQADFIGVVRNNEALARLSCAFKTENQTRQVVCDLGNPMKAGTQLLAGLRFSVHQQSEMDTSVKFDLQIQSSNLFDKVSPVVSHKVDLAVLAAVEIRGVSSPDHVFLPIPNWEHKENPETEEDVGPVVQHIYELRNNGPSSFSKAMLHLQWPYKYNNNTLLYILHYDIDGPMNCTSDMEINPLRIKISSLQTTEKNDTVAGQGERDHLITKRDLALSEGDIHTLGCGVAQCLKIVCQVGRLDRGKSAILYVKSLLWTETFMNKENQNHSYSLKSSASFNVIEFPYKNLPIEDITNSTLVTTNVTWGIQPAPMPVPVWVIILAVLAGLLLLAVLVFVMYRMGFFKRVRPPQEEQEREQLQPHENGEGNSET

## CNTO 95 Fab′ (anti-alpha-V Fab′ made by pepsin cleavage of the parent antibody, reduction and reoxidation), conjugated to MalPEG-DSPE on the surface of liposomes
  IC50 of doxorubicin, cell viability, colon cancer HT29 cells, targeted liposomes 40:1: 180
  IC50 of doxorubicin, cell viability, colon cancer HT29 cells, targeted liposomes 90:1: > 200
  IC50 of doxorubicin, cell viability, melanoma A375.S2 cells, targeted liposomes 40:1: 15
  IC50 of doxorubicin, cell viability, melanoma A375.S2 cells, targeted liposomes 90:1: 7
  IC50 of doxorubicin, cell viability, ovarian cancer A2780 cells, targeted liposomes 40:1: 12
  IC50 of doxorubicin, cell viability, ovarian cancer A2780 cells, targeted liposomes 90:1: 7
  Increase (ratio of IC50 of liposome-entrapped doxorubicin to IC50 of 90:1 targeted liposomes), A375.S2 cells: 29 fold
  Increase (ratio of IC50 of liposome-entrapped doxorubicin to IC50 of 90:1 targeted liposomes), A549 cells: 1 fold
  Increase (ratio of IC50 of liposome-entrapped doxorubicin to IC50 of 90:1 targeted liposomes), A2780 cells: 29 fold
  Increase (ratio of IC50 of liposome-entrapped doxorubicin to IC50 of 90:1 targeted liposomes), HT29 cells: 1.1 fold
  Increase (ratio of IC50 of liposome-entrapped doxorubicin to IC50 of 90:1 targeted liposomes), MDA-MB-231 cells: 5 fold
